Measurements taken from patent US20240336672A1.

Tests used:
Details in all cases: remark: other sources report otherwise
[1] = molecular target: SARS-CoV-2 RBD (P.1) domain (SARS-CoV-2); experiment: ELISA
[2] = molecular target: SARS-CoV-2 RBD (B.1.1.7) domain (SARS-CoV-2); experiment: ELISA
[3] = molecular target: SARS-CoV-2 RBD (B.1.351) domain (SARS-CoV-2); experiment: ELISA
[4] = molecular target: T1, SARS-CoV-2 Spike ectodomain (tri-S), Wuhan (SARS-CoV-2), P0DTC2; experiment: ELISA
[5] = molecular target: SARS-CoV-2 RBD (P.1) domain (SARS-CoV-2); experiment: RBD/ACE2 blocking ELISA
[6] = molecular target: SARS-CoV-2 RBD (B.1.1.7) domain (SARS-CoV-2); experiment: RBD/ACE2 blocking ELISA
[7] = molecular target: SARS-CoV-2 RBD (B.1.351) domain (SARS-CoV-2); experiment: RBD/ACE2 blocking ELISA
[8] = molecular target: T1, SARS-CoV-2 Spike ectodomain (tri-S), …; experiment: competition ELISA, biotinylated tri-S to immobilized ACE2 ectodomain
[9] = molecular target: T1, SARS-CoV-2 Spike ectodomain (tri-S), …; experiment: competition ELISA, spike protein binding to ACE2 ectodomain
[10] = molecular target: SARS-CoV-2 RBD (P.1) domain (SARS-CoV-2); experiment: RBD-ACE2 competition ELISA; set-up: unit not given beside the values
[11] = molecular target: SARS-CoV-2 RBD (B.1.1.7) domain (SARS-CoV-2); experiment: RBD-ACE2 competition ELISA; set-up: unit not given beside the values
[12] = molecular target: SARS-CoV-2 RBD (B.1.351) domain (SARS-CoV-2); experiment: RBD-ACE2 competition ELISA; set-up: unit not given beside the values
[13] = molecular target: T1, SARS-CoV-2 Spike ectodomain (tri-S), …; experiment: ELISA, coated antigen
[14] = molecular target: T1, SARS-CoV-2 Spike ectodomain (tri-S), …; experiment: tri-S/ACE2 blocking ELISA
[15] = molecular target: T1, SARS-CoV-2 Spike ectodomain (tri-S), …; experiment: competition ELISA vs bio-Cv2.1169
[16] = molecular target: T1, SARS-CoV-2 Spike ectodomain (tri-S), …; experiment: SPR (Biacore), antibody coupled to CM5 chip, viral protein as analyte
[17] = molecular target: SARS-CoV-2 RBD (P.1) domain (SARS-CoV-2); experiment: ELISA; set-up: unit not given beside the values
[18] = molecular target: SARS-CoV-2 RBD (B.1.1.7) domain (SARS-CoV-2); experiment: ELISA; set-up: unit not given beside the values
[19] = molecular target: SARS-CoV-2 RBD (B.1.351) domain (SARS-CoV-2); experiment: ELISA; set-up: unit not given beside the values
[20] = molecular target: SARS-CoV-2 RBD (P.1) domain (SARS-CoV-2); experiment: ELISA; set-up: unit not given beside the values; remark: listed apart in the source
[21] = molecular target: SARS-CoV-2 RBD (B.1.1.7) domain (SARS-CoV-2); experiment: ELISA; set-up: unit not given beside the values; remark: listed apart in the source
[22] = molecular target: SARS-CoV-2 RBD (B.1.351) domain (SARS-CoV-2); experiment: ELISA; set-up: unit not given beside the values; remark: listed apart in the source
[23] = molecular target: T1, SARS-CoV-2 Spike ectodomain (tri-S), …; experiment: ELISA; set-up: unit not given beside the values
[24] = molecular target: SARS-CoV-2 RBD (P.1) domain (SARS-CoV-2); experiment: competition ELISA, biotinylated RBD to immobilized ACE2 ectodomain
[25] = molecular target: SARS-CoV-2 RBD (B.1.1.7) domain (SARS-CoV-2); experiment: as above
[26] = molecular target: SARS-CoV-2 RBD (B.1.351) domain (SARS-CoV-2); experiment: as above
[27] = molecular target: T1, SARS-CoV-2 Spike ectodomain (tri-S), …; experiment: competition ELISA vs bio-Cv2.5213
[28] = molecular target: T1, SARS-CoV-2 Spike ectodomain (tri-S), …; experiment: competition ELISA vs bio-Cv2.1353
[29] = molecular target: T1, SARS-CoV-2 Spike ectodomain (tri-S), …; experiment: tri-S/ACE2 blocking ELISA [B]

B1: Cv2.3194 (recombinant human IgG1) (antibody)
heavy: EVQLVESGGGLIQPGGSLRLSCAASGITVTSNYMSWVRQAPGKGLEWVSVIYPGGSTFYADSVKGRFTISRDNSKNTLYLQMNSLRAEDTAVYYCARDLVVYGMDVWGQGTTVTVSSASTKGPSVFPLAPSSKSTSGGTAALGCLVKDYFPEPVTVSWNSGALTSGVHTFPAVLQSSGLYSLSSVVTVPSSSLGTQTYICNVNHKPSNTKVDKKVEPKSCDKTHTCPPCPAPELLGGPSVFLFPPKPKDTLMISRTPEVTCVVVDVSHEDPEVKFNWYVDGVEVHNAKTKPREEQYNSTYRVVSVLTVLHQDWLNGKEYKCKVSNKALPAPIEKTISKAKQPREPQVYTLPPSRDELTKNQVSLTCLVKGFYPSDIAVEWESNGQPENNYKTTPPVLDSDGSFFLYSKLTVDKSRWQQGNVFSCSVMHEALHNHYTQKSLSLSPGK
light: EIVLTQSPGTLSLSPGERATLSCRASQSVSSSYLAWYQQKPGQAPRLLIYGASSRATGIPGRFSGSGSGTDFTLTISRLEPEDFAIYYCQQGVTFGGGTKVEIKRTVAAPSVFIFPPSDEQLKSGTASVVCLLNNFYPREAKVQWKVDNALQSGNSQESVTEQDSKDSTYSLSSTLTLSKADYEKHKVYACEVTHQGLSSPVTKSFNRGEC
For B1, the OD405nm [1] was 3.4, the OD405nm [2] was 3.4 and the OD405nm [3] was 3.5. The OD405nm [4] was 3.5, the % binding inhibition [5] was 94% and the % binding inhibition [6] was 97%. For the same binder, the % binding inhibition [7] was 95%, the IC50 [8] was 0.093 µg/mL and the IC90 [8] was 0.212 µg/mL. The ACE2 Block (%) [9] was 91%, the AUC (RBD block.) [10] was 139 and the AUC (RBD block.) [11] was 147. It also gave an AUC (RBD block.) [12] of 168, an ELISA OD [13] of 3.6 OD and a triS ELISA (AUC) [13] of 15.8 AUC. It also gave a % binding inhibition [14] of 97%, a % inhibition (competition) [15] of 81 and a Kd [16] of less than 1 pM. The AUC (RBD bind.) [17] was 13, the AUC (RBD bind.) [18] was 13 and the AUC [19] was 12. It also gave an AUC (RBD bind.) [19] of 12, an AUC [20] of 3 and an AUC [21] of 3. It also gave an AUC [22] of 4, an AUC [23] of 3 and an IC50 [24] of 0.412 µg/mL. For the same binder, the IC90 [24] was 0.591 µg/mL, the IC50 [25] was 0.212 µg/mL and the IC90 [25] was 0.737 µg/mL. It also gave an IC50 [26] of 0.206 µg/mL, an IC90 [26] of 0.406 µg/mL and a % inhibition (competition) [27] of 84. It also gave a % inhibition (competition) [28] of 82 and an AUC of blocking [29] of 181.
